T1: human Cadherin-11 expressed on 431-D-11 cells (human) (UniProt P55287)
T1 sequence: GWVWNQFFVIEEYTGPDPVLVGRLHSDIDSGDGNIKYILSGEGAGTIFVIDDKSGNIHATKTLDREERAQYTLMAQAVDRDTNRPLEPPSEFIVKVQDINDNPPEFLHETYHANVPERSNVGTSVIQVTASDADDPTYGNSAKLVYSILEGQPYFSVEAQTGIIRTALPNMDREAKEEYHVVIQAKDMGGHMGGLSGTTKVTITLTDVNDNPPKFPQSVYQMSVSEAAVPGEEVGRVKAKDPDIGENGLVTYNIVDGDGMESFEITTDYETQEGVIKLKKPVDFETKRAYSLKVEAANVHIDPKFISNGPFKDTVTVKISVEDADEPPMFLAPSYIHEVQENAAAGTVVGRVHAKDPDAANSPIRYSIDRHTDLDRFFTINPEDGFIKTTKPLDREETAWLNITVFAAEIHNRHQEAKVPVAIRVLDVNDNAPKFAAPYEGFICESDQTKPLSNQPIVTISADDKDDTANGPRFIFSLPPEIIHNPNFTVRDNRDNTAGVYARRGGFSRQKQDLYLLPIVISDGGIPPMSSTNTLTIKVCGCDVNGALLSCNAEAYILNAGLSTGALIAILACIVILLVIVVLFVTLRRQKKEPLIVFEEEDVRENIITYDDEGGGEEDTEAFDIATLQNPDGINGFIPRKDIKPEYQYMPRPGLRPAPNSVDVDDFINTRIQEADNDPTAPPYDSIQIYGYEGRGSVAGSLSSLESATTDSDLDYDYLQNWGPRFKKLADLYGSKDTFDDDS

T2: Cad-11 EC1 domain peptide (first 33 amino acids of the EC1 domain), specificity ELISA of Example 5 (human)
T2 sequence (peptide): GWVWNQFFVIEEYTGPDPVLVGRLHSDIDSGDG

T3: Cad-8 EC1 domain peptide (region overlapping the G1-G33 region of the Cad-11 EC1 domain) (UniProt P55286)
T3 sequence (peptide, conjugated to biotin, looked up): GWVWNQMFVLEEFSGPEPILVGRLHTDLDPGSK


Assays:
[1] = target: T1, human Cadherin-11 expressed on 431-D-11 cells (human); assay: cell-based or functional assay
[2] = target: T1, human Cadherin-11 expressed on 431-D-11 cells (human); assay: cell-based or functional assay; remark: listed apart in the source
[3] = target: T2, Cad-11 EC1 domain peptide (first 33 amino acids of the EC1 domain), specificity ELISA of Example 5 (human); assay: ELISA on EC1 domain peptides (first 33 amino acids)
[4] = target: T3, Cad-8 EC1 domain peptide (region overlapping the G1-G33 region of the Cad-11 EC1 domain); assay: ELISA on EC1 domain peptides, against the Cad-11 peptide

| inhibition of Cad-11 mediated cell aggregation [1] [µg/mL] | inhibition of aggregation of Cad-11 expressing 431-D-11 cells at 40 min [1] [µg/mL] | inhibition of aggregation of Cad-11-expressing A-431-D cells (photographs, overnight culture) [2] [µg/mL] | fold higher binding to Cad-11 than to any of the other cadherins tested [3] [fold] | fold lower binding than to Cad-11 [4] [fold] | Molecule |
| --- | --- | --- | --- | --- | --- |
| 100 |  |  |  |  | human Cad-11-EC1-5-Fc fusion protein (from UniProt P55287 54-609) |
| 3 | 3 |  |  |  | human Cad-11-EC1-hIgG2-Fc1 fusion protein (Fc fusion) |
|  |  | 30 | > 100 | 365 | H1M1 anti-Cad-11 antibody (produced by hybridoma H1M1, ATCC accession number PTA-9699) (antibody, from a related filing, V domains shown) VH: EVQLQQSGPELVKPGASVKISCKASGYSFTGYFMNWVKQSHGKSLEWIGRINPYTGDTFYNQKFKGKATLTVDKSSSTAHMELLSLSSEDSAVYYCGRLGSRYWYFDVWGAGTTVTVSS VL: DVLMTQTPLSLPVSLGDQASISCRSSQSIIHSNGNTYLEWYLQKPGQSPKLLIYKVSNRFSGVPDRFTGSGSGTDFTLKISRVEAEDLGVYYCFQGSHVPWTFGGGTKLEIK |
